The text below walks through data of publication PMC12167799, “The role of human Shu complex in ATP-dependent regulation of RAD51 filaments during homologous recombination–associated DNA damage response” (The Journal of Biological Chemistry, 2025).

In this test the target is human RAD51 (human) (UniProt Q06609).
Sequence of human RAD51 (human) (Q06609 whole entry): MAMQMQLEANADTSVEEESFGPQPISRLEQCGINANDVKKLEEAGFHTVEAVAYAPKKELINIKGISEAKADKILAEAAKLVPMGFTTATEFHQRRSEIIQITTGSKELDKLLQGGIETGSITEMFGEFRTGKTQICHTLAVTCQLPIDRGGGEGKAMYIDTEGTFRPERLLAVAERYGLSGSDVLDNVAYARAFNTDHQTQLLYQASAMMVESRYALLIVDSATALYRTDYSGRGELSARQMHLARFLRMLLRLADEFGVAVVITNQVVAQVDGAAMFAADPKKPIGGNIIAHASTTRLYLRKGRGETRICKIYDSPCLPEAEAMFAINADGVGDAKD

The substance “human Shu complex hSWS1-SWSAP1, wildtype (from UniProt Q19AV6 1-140; Q6NVH7 1-250)” gave a fluorescence intensity of 5′-6-FAM-labeled RAD51-ssDNA filaments (1 μM RAD51, 15 nM poly-dT39, 2 mM ATP) after addition of 50 nM hSWS1-SWSAP1, 10-s intervals over 60 s of 40%.
